The source of these data is PMC3174212, “A Negative Feedback Loop That Limits the Ectopic Activation of a Cell Type–Specific Sporulation Sigma Factor of Bacillus subtilis” (PLoS Genetics, 2011).

Experiment [1] has as its target T1, GST-σ^GN45A (Bacillus subtilis, UniProt P19940 1-260, N45A).
T1 construct: RNA polymerase sigma-G factor of Bacillus subtilis; coding region of sigGN45A amplified from pJS4 and cloned into pGex4T-3; not shown: GST, N-terminal, kept
T1 sequence (looked up): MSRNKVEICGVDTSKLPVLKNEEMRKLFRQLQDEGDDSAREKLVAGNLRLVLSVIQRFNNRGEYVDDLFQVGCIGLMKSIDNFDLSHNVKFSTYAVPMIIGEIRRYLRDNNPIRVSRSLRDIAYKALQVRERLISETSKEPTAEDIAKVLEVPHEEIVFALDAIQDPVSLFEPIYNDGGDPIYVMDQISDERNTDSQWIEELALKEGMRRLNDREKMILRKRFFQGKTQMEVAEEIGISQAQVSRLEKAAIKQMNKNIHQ
As to the kind of experiment: pull-down; GST or GST-σ^G fusions on glutathione Sepharose beads; 100 nM purified CsfB-Strep II tag; 30 min at room temperature; washed three times in 200 mM NaCl, 10 mM Tris-HCl pH 8.0, 10% glycerol; immunoblot with anti-Strep II tag; densitometry, average of three experiments. The settings on record: both partners purified. (In general: In western blotting, separated proteins are transferred to a membrane and probed.)

Experiment [2] has as its target T2, GST-σ^G (Bacillus subtilis, UniProt P19940 1-260).
T2 construct: RNA polymerase sigma-G factor of Bacillus subtilis; coding region of sigG amplified with primers sigG2016D and sigG2964R from pMS45 and cloned into pGex4T-3; also called GST-σ^Gwt; GST-σ^G fusion protein (wt); not shown: GST, N-terminal, kept
T2 sequence (looked up): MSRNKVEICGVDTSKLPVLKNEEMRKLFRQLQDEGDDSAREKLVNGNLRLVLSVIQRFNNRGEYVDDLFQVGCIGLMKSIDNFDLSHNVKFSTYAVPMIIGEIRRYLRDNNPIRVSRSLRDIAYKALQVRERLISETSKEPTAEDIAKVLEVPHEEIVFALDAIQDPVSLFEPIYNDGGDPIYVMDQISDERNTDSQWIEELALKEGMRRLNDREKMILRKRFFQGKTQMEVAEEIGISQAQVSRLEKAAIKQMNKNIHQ
The description is as above. The following applies: both partners purified.

The target of experiment [3] is GST-σ^GN45E (Bacillus subtilis) (UniProt P19940). Described as above.
Experiment [4] has as its target T1, GST-σ^GN45A. As to the kind of experiment: pull-down; GST or GST-σ^G fusions on glutathione Sepharose beads; soluble extract of B. subtilis AH6608 (CsfB-GFP) 2 h after the onset of sporulation; 30 min at room temperature; washed three times in 200 mM NaCl, 10 mM Tris-HCl pH 8.0, 10% glycerol; immunoblot with anti-GFP and anti-SpoIIAB; densitometry, average of three experiments. The settings on record: one partner purified.

In experiment [5] the target is GST-σ^GN45E (Bacillus subtilis) (UniProt P19940). Described as above.

B1: CsfB-Strep II tag (natural protein, Bacillus subtilis, UniProt P37534 1-64, looked up)
chain: MDETVKLNHTCVICDQEKNRGIHLYTKFICLDCERKVISTSTSDPDYAFYVKKLKSIHTPPLYS
notes: anti-sigma-G factor CsfB (Gin) of Bacillus subtilis; coding region of csfB amplified with primers csfB191D and csfBstrepR (which carries the Strep II tag) and cloned between NcoI and BamHI of pET16b; also called CsfB-Strep II-tagged protein; purified CsfB; source: E. coli BL21(DE3) grown in LB, purified (Strep-Tactin Sepharose); not shown: Strep II tag, C-terminal, kept
Turning to B1, in experiment [1], the “efficiency of the pull-down relative to the wild type” value was ~0.6 × the efficiency of the wild type. The binding result in experiment [2] is “binds”. The efficiency of the pull-down relative to the wild type (× of the wild type) in experiment [3] is 0.2.

B2: CsfB-GFP fusion (natural protein, Bacillus subtilis, UniProt P37534 1-64, looked up)
chain: MDETVKLNHTCVICDQEKNRGIHLYTKFICLDCERKVISTSTSDPDYAFYVKKLKSIHTPPLYS
notes: anti-sigma-G factor CsfB (Gin) of Bacillus subtilis, functional fusion to GFP; The construction of the csfB-gfp fusion stands in Text S1; source: B. subtilis AH6608 (csfB::km ΔsigG ΔamyE::csfB-gfp), soluble extract 2 h after the onset of sporulation in DSM
For B2, the “efficiency of the pull-down relative to the wild type” value in experiment [4] was 0.7 × of the wild type. Besides, the efficiency of the pull-down relative to the wild type (× of the wild type) in experiment [5] stood at 0.4.
